Data from paper PMC11272584 (Nature Metabolism, 2024).

T1: GIPR R190Q (Homo sapiens, UniProt P48546, R190Q)
T1 construct: host or cells: HEK293
T1 sequence (P48546 22-466 R190Q): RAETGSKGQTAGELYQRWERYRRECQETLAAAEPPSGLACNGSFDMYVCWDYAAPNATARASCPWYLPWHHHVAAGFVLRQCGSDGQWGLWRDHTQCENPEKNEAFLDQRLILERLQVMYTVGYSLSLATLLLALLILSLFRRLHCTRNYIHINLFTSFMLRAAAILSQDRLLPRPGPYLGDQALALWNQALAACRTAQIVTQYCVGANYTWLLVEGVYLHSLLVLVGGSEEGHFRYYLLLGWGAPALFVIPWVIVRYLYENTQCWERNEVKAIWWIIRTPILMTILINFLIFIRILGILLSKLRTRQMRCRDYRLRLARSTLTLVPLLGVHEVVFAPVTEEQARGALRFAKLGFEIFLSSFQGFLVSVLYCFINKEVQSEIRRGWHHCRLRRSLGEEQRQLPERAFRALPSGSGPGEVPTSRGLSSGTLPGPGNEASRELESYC

T2: GIPR P195R (Homo sapiens, UniProt P48546, P195R)
T2 construct: host or cells: HEK293
T2 sequence (P48546 22-466 P195R): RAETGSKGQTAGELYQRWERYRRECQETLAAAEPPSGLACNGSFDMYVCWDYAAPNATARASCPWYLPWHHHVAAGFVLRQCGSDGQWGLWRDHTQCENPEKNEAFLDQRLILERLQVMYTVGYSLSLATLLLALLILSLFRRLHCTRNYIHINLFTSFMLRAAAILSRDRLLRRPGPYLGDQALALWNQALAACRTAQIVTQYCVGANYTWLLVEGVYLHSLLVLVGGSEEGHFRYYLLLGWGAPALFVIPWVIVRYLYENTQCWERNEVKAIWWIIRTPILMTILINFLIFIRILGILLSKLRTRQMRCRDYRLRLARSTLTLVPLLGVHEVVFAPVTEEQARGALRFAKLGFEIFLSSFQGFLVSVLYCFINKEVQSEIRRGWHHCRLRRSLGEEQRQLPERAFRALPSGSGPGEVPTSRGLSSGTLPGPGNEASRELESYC

T3: GIPR L261H (Homo sapiens, UniProt P48546, L261H)
T3 construct: host or cells: HEK293
T3 sequence (P48546 22-466 L261H): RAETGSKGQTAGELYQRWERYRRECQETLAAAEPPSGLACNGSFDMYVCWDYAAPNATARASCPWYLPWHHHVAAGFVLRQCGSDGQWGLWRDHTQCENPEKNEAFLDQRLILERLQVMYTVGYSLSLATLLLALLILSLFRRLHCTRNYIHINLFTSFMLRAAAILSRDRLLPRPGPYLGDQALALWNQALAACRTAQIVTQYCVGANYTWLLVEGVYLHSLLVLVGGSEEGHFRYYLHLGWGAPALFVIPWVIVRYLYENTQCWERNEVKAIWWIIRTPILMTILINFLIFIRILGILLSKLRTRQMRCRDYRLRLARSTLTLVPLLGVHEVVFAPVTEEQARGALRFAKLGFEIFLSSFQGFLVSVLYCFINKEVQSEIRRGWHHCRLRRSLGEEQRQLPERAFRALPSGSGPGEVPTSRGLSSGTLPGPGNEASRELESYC

T4: GIPR A207V (Homo sapiens, UniProt P48546, A207V)
T4 construct: host or cells: HEK293
T4 sequence (P48546 22-466 A207V): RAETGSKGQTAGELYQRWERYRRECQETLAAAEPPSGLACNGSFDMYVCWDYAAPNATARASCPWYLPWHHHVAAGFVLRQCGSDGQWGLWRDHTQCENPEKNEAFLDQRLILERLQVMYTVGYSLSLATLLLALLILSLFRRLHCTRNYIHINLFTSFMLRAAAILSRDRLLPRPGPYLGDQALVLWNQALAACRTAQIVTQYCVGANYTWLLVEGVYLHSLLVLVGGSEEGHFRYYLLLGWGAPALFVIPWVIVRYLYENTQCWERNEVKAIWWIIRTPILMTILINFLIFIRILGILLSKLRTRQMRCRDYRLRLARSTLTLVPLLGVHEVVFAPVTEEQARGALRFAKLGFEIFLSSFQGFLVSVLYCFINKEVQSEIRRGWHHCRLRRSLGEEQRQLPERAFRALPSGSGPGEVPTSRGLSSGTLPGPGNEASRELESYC

T5: GIPR I221M (Homo sapiens, UniProt P48546, I221M)
T5 construct: host or cells: HEK293
T5 sequence (P48546 22-466 I221M): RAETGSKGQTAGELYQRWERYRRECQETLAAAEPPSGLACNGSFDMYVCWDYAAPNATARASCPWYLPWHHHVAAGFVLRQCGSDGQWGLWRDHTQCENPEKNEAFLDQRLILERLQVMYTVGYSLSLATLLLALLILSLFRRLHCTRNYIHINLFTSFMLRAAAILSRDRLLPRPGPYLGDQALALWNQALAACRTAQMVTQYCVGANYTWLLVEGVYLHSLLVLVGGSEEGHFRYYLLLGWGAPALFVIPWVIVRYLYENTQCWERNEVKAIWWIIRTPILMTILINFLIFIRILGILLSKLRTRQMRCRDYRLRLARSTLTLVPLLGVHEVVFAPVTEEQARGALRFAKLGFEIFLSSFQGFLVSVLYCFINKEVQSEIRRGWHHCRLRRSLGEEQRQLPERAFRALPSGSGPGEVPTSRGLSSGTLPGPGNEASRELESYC

T6: GIPR W233* (Homo sapiens, UniProt P48546)
T6 construct: host or cells: HEK293
T6 sequence (P48546 22-232 limits assumed): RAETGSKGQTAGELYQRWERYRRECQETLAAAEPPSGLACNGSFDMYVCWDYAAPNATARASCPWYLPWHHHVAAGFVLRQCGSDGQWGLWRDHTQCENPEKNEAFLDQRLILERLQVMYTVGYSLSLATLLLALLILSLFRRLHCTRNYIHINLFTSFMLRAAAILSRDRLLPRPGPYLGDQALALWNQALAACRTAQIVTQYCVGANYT


Columns and labels:
[1] = target: T1, GIPR R190Q; test: cAMP accumulation; type: cell-based
Description: (§1) HEK293 (CRL-1573, American Type Culture Collection) and β-arrestin 1/2 knockout cells, generated from HEK293A[48], were used for cAMP measurement, homologues competition binding and β-arrestin 2 recruitment. […] Both cell lines were cultured at 5% CO2 at 37 °C in Roswell Park Memorial Institute GlutaMAX-I supplemented with 10% fetal bovine serum, 180 units ml^−1 penicillin, and 45 g ml^−1 streptomycin. For the cAMP and binding experiments, cells were transfected with the calcium phosphate precipitation method[49].
(§2) cAMP production was measured with the DiscoverX Hithunter cAMP assay according to the manufacturer’s protocol (DiscoverX). […] On the day of the assay, the cells were washed twice with HEPES-buffered saline (HBS) and incubated with HBS and 1 mM 3-isobutyl-1-methylxanthine for 30 min at 37 °C. […] After the incubation, the assay medium was removed from the plate and the cells were washed with 30 µl PBS and treated with 40 µl enzyme donor–lysis buffer–chemiluminescent reagents and 10 µl cAMP antibodies for 60 min before 40 µl enzyme acceptor solution added. After a 3-h incubation on a shaking table in the dark, the cAMP accumulation was measured based on luminescence with a Perkin Elmer EnVision 2104 Multilabel Microplate Reader.

[2] = test system: GIPR variants (groups); test: cAMP accumulation; type: cell-based, human; conditions: for In vitro groups (cAMP): cAMP part of the in vitro group; for percentage_camp: cAMP production compared with WT; for Beta, cAMP: in vitro cAMP production per GIPR variant
Description: HEK293 (CRL-1573, American Type Culture Collection) and β-arrestin 1/2 knockout cells, generated from HEK293A[48], were used for cAMP measurement, homologues competition binding and β-arrestin 2 recruitment. For the internalization assay, endosomal signalling and basal receptor localization experiments, HEK293A (R70507, Thermo Fisher) cells were used. Both cell lines were cultured at 5% CO2 at 37 °C in Roswell Park Memorial Institute GlutaMAX-I supplemented with 10% fetal bovine serum, 180 units ml^−1 penicillin, and 45 g ml^−1 streptomycin. For the cAMP and binding experiments, cells were transfected with the calcium phosphate precipitation method[49]. The polyethyleneimine (PEI) transfection method was used for the β-arrestin 2 recruitment assays[50], endosomal signalling and basal receptor localization assays, while the lipofectamine transfection method was used for the internalization assay.
as §2
For cAMP accumulation, the data were fitted as a sigmoidal curve with a Hill slope of 1; for homologous competition binding, the data were fitted as a sigmoidal curve with a Hill slope of −1.

[3] = test system: GIPR variants (groups); test: β-arrestin 2 recruitment (BRET); conditions: for In vitro groups (β-arrestin): arr part of the in vitro group; for Beta, Barr: in vitro β-arrestin recruitment per GIPR variant;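 as to all read-outs here: BRET readout of β-arrestin 2 recruitment in transiently transfected HEK293 cells expressing WT GIPR or a GIPR variant plus GPCR kinase 2, Rluc8 donor and citrine acceptor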
[4] = target: T2, GIPR P195R; test: cAMP accumulation; type: cell-based
Description: as §1, §2

[5] = target: T3, GIPR L261H; test: cAMP accumulation; type: cell-based
Description: as §1, §2

[6] = target: T4, GIPR A207V; test: cAMP accumulation; type: cell-based
Description: as §1, §2

[7] = target: T5, GIPR I221M; test: cAMP accumulation; type: cell-based
Description: as §1, §2

[8] = target: T6, GIPR W233*; test: cAMP accumulation; type: cell-based
Description: as §1, §2

Efficacy at 100pmol (cAMP) [1] | Efficacy at 100pmol (cAMP) [4] | Efficacy at 100pmol (cAMP) [5] | Efficacy at 100pmol (cAMP) [6] | Efficacy at 100pmol (cAMP) [7] | Efficacy at 100pmol (cAMP) [8] | Molecule | In vitro groups (cAMP) [2] | percentage_camp [2] | Beta, cAMP [2] | In vitro groups (β-arrestin) [3] | Beta, Barr [3]
– | – | 0.4533 | – | – | – | L261H (protein) RAETGSKGQTAGELYQRWERYRRECQETLAAAEPPSGLACNGSFDMYVCWDYAAPNATARASCPWYLPWHHHVAAGFVLRQCGSDGQWGLWRDHTQCENPEKNEAFLDQRLILERLQVMYTVGYSLSLATLLLALLILSLFRRLHCTRNYIHINLFTSFMLRAAAILSRDRLLPRPGPYLGDQALALWNQALAACRTAQIVTQYCVGANYTWLLVEGVYLHSLLVLVGGSEEGHFRYYLHLGWGAPALFVIPWVIVRYLYENTQCWERNEVKAIWWIIRTPILMTILINFLIFIRILGILLSKLRTRQMRCRDYRLRLARSTLTLVPLLGVHEVVFAPVTEEQARGALRFAKLGFEIFLSSFQGFLVSVLYCFINKEVQSEIRRGWHHCRLRRSLGEEQRQLPERAFRALPSGSGPGEVPTSRGLSSGTLPGPGNEASRELESYC | LoF_camp | <50% cAMP | 0.4533 | LoF_arr | 0
– | – | – | – | – | 0.06458 | W233* (protein) RAETGSKGQTAGELYQRWERYRRECQETLAAAEPPSGLACNGSFDMYVCWDYAAPNATARASCPWYLPWHHHVAAGFVLRQCGSDGQWGLWRDHTQCENPEKNEAFLDQRLILERLQVMYTVGYSLSLATLLLALLILSLFRRLHCTRNYIHINLFTSFMLRAAAILSRDRLLPRPGPYLGDQALALWNQALAACRTAQIVTQYCVGANYT | LoF_camp | <50% cAMP | – | LoF_arr | –

The remaining lines, values behind:

Molecule | Efficacy at 100pmol (cAMP) [1] | Efficacy at 100pmol (cAMP) [4] | Efficacy at 100pmol (cAMP) [5] | Efficacy at 100pmol (cAMP) [6] | Efficacy at 100pmol (cAMP) [7] | Efficacy at 100pmol (cAMP) [8] | In vitro groups (cAMP) [2] | percentage_camp [2] | Beta, cAMP [2] | In vitro groups (β-arrestin) [3] | Beta, Barr [3]
R190Q (protein) RAETGSKGQTAGELYQRWERYRRECQETLAAAEPPSGLACNGSFDMYVCWDYAAPNATARASCPWYLPWHHHVAAGFVLRQCGSDGQWGLWRDHTQCENPEKNEAFLDQRLILERLQVMYTVGYSLSLATLLLALLILSLFRRLHCTRNYIHINLFTSFMLRAAAILSQDRLLPRPGPYLGDQALALWNQALAACRTAQIVTQYCVGANYTWLLVEGVYLHSLLVLVGGSEEGHFRYYLLLGWGAPALFVIPWVIVRYLYENTQCWERNEVKAIWWIIRTPILMTILINFLIFIRILGILLSKLRTRQMRCRDYRLRLARSTLTLVPLLGVHEVVFAPVTEEQARGALRFAKLGFEIFLSSFQGFLVSVLYCFINKEVQSEIRRGWHHCRLRRSLGEEQRQLPERAFRALPSGSGPGEVPTSRGLSSGTLPGPGNEASRELESYC | 0.008847 | – | – | – | – | – | LoF_camp | <50% cAMP | 0.008847 | LoF_arr | 0.1131
P195R (protein) RAETGSKGQTAGELYQRWERYRRECQETLAAAEPPSGLACNGSFDMYVCWDYAAPNATARASCPWYLPWHHHVAAGFVLRQCGSDGQWGLWRDHTQCENPEKNEAFLDQRLILERLQVMYTVGYSLSLATLLLALLILSLFRRLHCTRNYIHINLFTSFMLRAAAILSRDRLLRRPGPYLGDQALALWNQALAACRTAQIVTQYCVGANYTWLLVEGVYLHSLLVLVGGSEEGHFRYYLLLGWGAPALFVIPWVIVRYLYENTQCWERNEVKAIWWIIRTPILMTILINFLIFIRILGILLSKLRTRQMRCRDYRLRLARSTLTLVPLLGVHEVVFAPVTEEQARGALRFAKLGFEIFLSSFQGFLVSVLYCFINKEVQSEIRRGWHHCRLRRSLGEEQRQLPERAFRALPSGSGPGEVPTSRGLSSGTLPGPGNEASRELESYC | – | 0.117 | – | – | – | – | LoF_camp | <50% cAMP | 0.117 | WT-like_arr | 0.8561
A207V (protein) RAETGSKGQTAGELYQRWERYRRECQETLAAAEPPSGLACNGSFDMYVCWDYAAPNATARASCPWYLPWHHHVAAGFVLRQCGSDGQWGLWRDHTQCENPEKNEAFLDQRLILERLQVMYTVGYSLSLATLLLALLILSLFRRLHCTRNYIHINLFTSFMLRAAAILSRDRLLPRPGPYLGDQALVLWNQALAACRTAQIVTQYCVGANYTWLLVEGVYLHSLLVLVGGSEEGHFRYYLLLGWGAPALFVIPWVIVRYLYENTQCWERNEVKAIWWIIRTPILMTILINFLIFIRILGILLSKLRTRQMRCRDYRLRLARSTLTLVPLLGVHEVVFAPVTEEQARGALRFAKLGFEIFLSSFQGFLVSVLYCFINKEVQSEIRRGWHHCRLRRSLGEEQRQLPERAFRALPSGSGPGEVPTSRGLSSGTLPGPGNEASRELESYC | – | – | – | 0.1592 | – | – | LoF_camp | <50% cAMP | 0.1592 | WT-like_arr | 0.8334
I221M (protein) RAETGSKGQTAGELYQRWERYRRECQETLAAAEPPSGLACNGSFDMYVCWDYAAPNATARASCPWYLPWHHHVAAGFVLRQCGSDGQWGLWRDHTQCENPEKNEAFLDQRLILERLQVMYTVGYSLSLATLLLALLILSLFRRLHCTRNYIHINLFTSFMLRAAAILSRDRLLPRPGPYLGDQALALWNQALAACRTAQMVTQYCVGANYTWLLVEGVYLHSLLVLVGGSEEGHFRYYLLLGWGAPALFVIPWVIVRYLYENTQCWERNEVKAIWWIIRTPILMTILINFLIFIRILGILLSKLRTRQMRCRDYRLRLARSTLTLVPLLGVHEVVFAPVTEEQARGALRFAKLGFEIFLSSFQGFLVSVLYCFINKEVQSEIRRGWHHCRLRRSLGEEQRQLPERAFRALPSGSGPGEVPTSRGLSSGTLPGPGNEASRELESYC | – | – | – | – | 0.8221 | – | WT-like_camp | >50% cAMP | 0.8221 | LoF_arr | 0.1962
